From paper PMC3616717 come the findings set out here.

Data set [1] concerns the target RAD51 (UniProt Q06609 1-339). Briefly: single-molecule FRET.
The target of data set [2] is T1, human F-box-containing DNA helicase FBH1, FLAG-tagged and biotinylated, non-ubiquitylated (human), Q8NFZ0.
T1 chain: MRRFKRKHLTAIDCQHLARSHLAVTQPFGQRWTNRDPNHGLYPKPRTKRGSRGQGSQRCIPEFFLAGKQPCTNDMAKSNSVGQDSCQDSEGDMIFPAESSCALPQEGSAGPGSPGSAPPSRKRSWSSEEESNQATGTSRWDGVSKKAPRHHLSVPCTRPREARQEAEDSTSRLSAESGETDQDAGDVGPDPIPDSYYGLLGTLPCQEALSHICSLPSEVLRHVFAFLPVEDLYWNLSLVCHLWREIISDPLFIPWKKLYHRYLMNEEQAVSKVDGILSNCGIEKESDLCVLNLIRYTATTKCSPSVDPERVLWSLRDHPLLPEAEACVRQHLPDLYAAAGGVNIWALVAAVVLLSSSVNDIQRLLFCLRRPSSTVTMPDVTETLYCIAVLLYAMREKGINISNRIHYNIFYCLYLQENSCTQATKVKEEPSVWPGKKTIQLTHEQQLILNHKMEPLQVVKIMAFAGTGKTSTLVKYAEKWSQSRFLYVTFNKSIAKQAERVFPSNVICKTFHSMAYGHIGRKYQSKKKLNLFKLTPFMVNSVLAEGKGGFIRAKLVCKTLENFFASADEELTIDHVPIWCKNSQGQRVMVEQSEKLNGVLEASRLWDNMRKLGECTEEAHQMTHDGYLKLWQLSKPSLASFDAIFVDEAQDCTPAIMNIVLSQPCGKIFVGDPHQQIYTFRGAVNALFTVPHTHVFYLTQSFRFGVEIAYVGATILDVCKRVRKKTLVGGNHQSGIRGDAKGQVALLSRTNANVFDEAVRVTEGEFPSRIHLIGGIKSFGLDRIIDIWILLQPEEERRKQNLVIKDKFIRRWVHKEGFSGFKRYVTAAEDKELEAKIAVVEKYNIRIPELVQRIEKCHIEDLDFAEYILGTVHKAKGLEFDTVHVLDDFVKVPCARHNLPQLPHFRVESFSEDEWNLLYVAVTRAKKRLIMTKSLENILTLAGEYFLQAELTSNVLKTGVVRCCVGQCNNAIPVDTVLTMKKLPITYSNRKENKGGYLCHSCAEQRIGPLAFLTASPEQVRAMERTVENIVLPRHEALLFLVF
Briefly: single-molecule TIRFM. As to conditions: remark: other sources report otherwise.

B1: Cy3/Cy5-labeled poly(dT)60 (oligo g) (ssDNA)
DNA: TTTTTTTTTTTTTTTTTTTTTTTTTTTTTTTTTTTTTTTTTTTTTTTTTTTTTTTTTTTT
For the molecule B1, in data set [1], the binding result is “binds”.

B2: human RAD51 protein, Q06609 1-339 (natural protein)
chain: MAMQMQLEANADTSVEEESFGPQPISRLEQCGINANDVKKLEEAGFHTVEAVAYAPKKELINIKGISEAKADKILAEAAKLVPMGFTTATEFHQRRSEIIQITTGSKELDKLLQGGIETGSITEMFGEFRTGKTQICHTLAVTCQLPIDRGGGEGKAMYIDTEGTFRPERLLAVAERYGLSGSDVLDNVAYARAFNTDHQTQLLYQASAMMVESRYALLIVDSATALYRTDYSGRGELSARQMHLARFLRMLLRLADEFGVAVVITNQVVAQVDGAAMFAADPKKPIGGNIIAHASTTRLYLRKGRGETRICKIYDSPCLPEAEAMFAINADGVGDAKD
modifications: here or on the partner: biotin on the underlined lysine of the BAP sequence (…)
As to B2, the on-rate constant (kon) in data set [2] stood at 2.7e+07 M⁻¹ s⁻¹.
